Source: patent US20250073311A1, “DOSAGE REGIME” (ZEALAND PHARMA A/S, priority 2021, published 2025)
Numbered stars: 1 amine (or outer) side, 2 acyl side, 3 side chain; on linkers, the order of the positions; unused ones are H or OH. Square brackets hold non-standard residues; d marks the D form. Side chains are listed from the residue outwards. * marks the point of attachment. C20 diacid = O=C(O)CCCCCCCCCCCCCCCCCCC(=O)*; C18 diacid = O=C(O)CCCCCCCCCCCCCCCCC(=O)*; γGlu = O=C(O)[C@H](CCC(=O)[*:2])N[*:1]; AEEA = NCCOCCOCC(=O)O; Aib = CC(C)(N)C(=O)O

T1: human GLP-2 receptor (hGLP2-R) (human, UniProt O95838)
T1 sequence: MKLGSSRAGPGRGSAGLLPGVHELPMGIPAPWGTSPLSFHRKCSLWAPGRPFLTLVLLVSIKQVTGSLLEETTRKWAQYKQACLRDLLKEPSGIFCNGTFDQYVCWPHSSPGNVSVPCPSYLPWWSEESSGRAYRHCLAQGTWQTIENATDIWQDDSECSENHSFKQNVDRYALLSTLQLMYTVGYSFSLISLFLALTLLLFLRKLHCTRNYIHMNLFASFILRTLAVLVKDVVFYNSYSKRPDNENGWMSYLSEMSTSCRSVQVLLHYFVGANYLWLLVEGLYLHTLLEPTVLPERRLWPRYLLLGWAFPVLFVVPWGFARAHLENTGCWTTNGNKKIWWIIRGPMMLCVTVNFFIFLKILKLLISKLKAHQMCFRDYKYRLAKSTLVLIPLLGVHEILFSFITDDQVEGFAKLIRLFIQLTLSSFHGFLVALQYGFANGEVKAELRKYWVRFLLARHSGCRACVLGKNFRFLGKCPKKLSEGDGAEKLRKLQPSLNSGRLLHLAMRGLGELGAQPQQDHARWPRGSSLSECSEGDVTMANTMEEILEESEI

B1: Compound 44 (peptide)
peptide: H-H[Aib]EGSFTSELATILEGK([AEEA-AEEA-γGlu-C20 diacid])AARDFIAWLIEHKITD-OH
SMILES: CC[C@H](C)[C@H](NC(=O)[C@H](Cc1ccccc1)NC(=O)[C@H](CC(=O)O)NC(=O)[C@H](CCCNC(=N)N)NC(=O)[C@H](C)NC(=O)[C@H](C)NC(=O)[C@H](CCCCNC(=O)COCCOCCNC(=O)COCCOCCNC(=O)CC[C@H](NC(=O)CCCCCCCCCCCCCCCCCCC(=O)O)C(=O)O)NC(=O)CNC(=O)[C@H](CCC(=O)O)NC(=O)[C@H](CC(C)C)NC(=O)[C@@H](NC(=O)[C@@H](NC(=O)[C@H](C)NC(=O)[C@H](CC(C)C)NC(=O)[C@H](CCC(=O)O)NC(=O)[C@H](CO)NC(=O)[C@@H](NC(=O)[C@H](Cc1ccccc1)NC(=O)[C@H](CO)NC(=O)CNC(=O)[C@H](CCC(=O)O)NC(=O)C(C)(C)NC(=O)[C@@H](N)Cc1c[nH]cn1)[C@@H](C)O)[C@@H](C)O)[C@@H](C)CC)C(=O)N[C@@H](C)C(=O)N[C@@H](Cc1c[nH]c2ccccc12)C(=O)N[C@@H](CC(C)C)C(=O)N[C@H](C(=O)N[C@@H](CCC(=O)O)C(=O)N[C@@H](Cc1c[nH]cn1)C(=O)N[C@@H](CCCCN)C(=O)N[C@H](C(=O)N[C@H](C(=O)N[C@@H](CC(=O)O)C(=O)O)[C@@H](C)O)[C@@H](C)CC)[C@@H](C)CC
B2: Compound 46 (peptide)
peptide: H-H[Aib]EGTFTSELATILDEQAAK([AEEA-AEEA-γGlu-C20 diacid])DFIAWLIEHKITD-OH
SMILES: CC[C@H](C)[C@H](NC(=O)[C@H](Cc1ccccc1)NC(=O)[C@H](CC(=O)O)NC(=O)[C@H](CCCCNC(=O)COCCOCCNC(=O)COCCOCCNC(=O)CC[C@H](NC(=O)CCCCCCCCCCCCCCCCCCC(=O)O)C(=O)O)NC(=O)[C@H](C)NC(=O)[C@H](C)NC(=O)[C@H](CCC(N)=O)NC(=O)[C@H](CCC(=O)O)NC(=O)[C@H](CC(=O)O)NC(=O)[C@H](CC(C)C)NC(=O)[C@@H](NC(=O)[C@@H](NC(=O)[C@H](C)NC(=O)[C@H](CC(C)C)NC(=O)[C@H](CCC(=O)O)NC(=O)[C@H](CO)NC(=O)[C@@H](NC(=O)[C@H](Cc1ccccc1)NC(=O)[C@@H](NC(=O)CNC(=O)[C@H](CCC(=O)O)NC(=O)C(C)(C)NC(=O)[C@@H](N)Cc1c[nH]cn1)[C@@H](C)O)[C@@H](C)O)[C@@H](C)O)[C@@H](C)CC)C(=O)N[C@@H](C)C(=O)N[C@@H](Cc1c[nH]c2ccccc12)C(=O)N[C@@H](CC(C)C)C(=O)N[C@H](C(=O)N[C@@H](CCC(=O)O)C(=O)N[C@@H](Cc1c[nH]cn1)C(=O)N[C@@H](CCCCN)C(=O)N[C@H](C(=O)N[C@H](C(=O)N[C@@H](CC(=O)O)C(=O)O)[C@@H](C)O)[C@@H](C)CC)[C@@H](C)CC
B3: Compound 41 (peptide)
peptide: H-H[Aib]EGTFTSELATILDK([γGlu-C20 diacid])QAARDFIAWLIQHKITD-OH
SMILES: CC[C@H](C)[C@H](NC(=O)[C@H](Cc1ccccc1)NC(=O)[C@H](CC(=O)O)NC(=O)[C@H](CCCNC(=N)N)NC(=O)[C@H](C)NC(=O)[C@H](C)NC(=O)[C@H](CCC(N)=O)NC(=O)[C@H](CCCCNC(=O)CC[C@H](NC(=O)CCCCCCCCCCCCCCCCCCC(=O)O)C(=O)O)NC(=O)[C@H](CC(=O)O)NC(=O)[C@H](CC(C)C)NC(=O)[C@@H](NC(=O)[C@@H](NC(=O)[C@H](C)NC(=O)[C@H](CC(C)C)NC(=O)[C@H](CCC(=O)O)NC(=O)[C@H](CO)NC(=O)[C@@H](NC(=O)[C@H](Cc1ccccc1)NC(=O)[C@@H](NC(=O)CNC(=O)[C@H](CCC(=O)O)NC(=O)C(C)(C)NC(=O)[C@@H](N)Cc1c[nH]cn1)[C@@H](C)O)[C@@H](C)O)[C@@H](C)O)[C@@H](C)CC)C(=O)N[C@@H](C)C(=O)N[C@@H](Cc1c[nH]c2ccccc12)C(=O)N[C@@H](CC(C)C)C(=O)N[C@H](C(=O)N[C@@H](CCC(N)=O)C(=O)N[C@@H](Cc1c[nH]cn1)C(=O)N[C@@H](CCCCN)C(=O)N[C@H](C(=O)N[C@H](C(=O)N[C@@H](CC(=O)O)C(=O)O)[C@@H](C)O)[C@@H](C)CC)[C@@H](C)CC
B4: Compound 40 (peptide)
peptide: H-H[Aib]EGSFTSELATILDEQAARDFIAWLIEHKITD[dK][dK][dK][dK][dK][dK]([γGlu-C18 diacid])-NH2
SMILES: CC[C@H](C)[C@H](NC(=O)[C@H](Cc1ccccc1)NC(=O)[C@H](CC(=O)O)NC(=O)[C@H](CCCNC(=N)N)NC(=O)[C@H](C)NC(=O)[C@H](C)NC(=O)[C@H](CCC(N)=O)NC(=O)[C@H](CCC(=O)O)NC(=O)[C@H](CC(=O)O)NC(=O)[C@H](CC(C)C)NC(=O)[C@@H](NC(=O)[C@@H](NC(=O)[C@H](C)NC(=O)[C@H](CC(C)C)NC(=O)[C@H](CCC(=O)O)NC(=O)[C@H](CO)NC(=O)[C@@H](NC(=O)[C@H](Cc1ccccc1)NC(=O)[C@H](CO)NC(=O)CNC(=O)[C@H](CCC(=O)O)NC(=O)C(C)(C)NC(=O)[C@@H](N)Cc1c[nH]cn1)[C@@H](C)O)[C@@H](C)O)[C@@H](C)CC)C(=O)N[C@@H](C)C(=O)N[C@@H](Cc1c[nH]c2ccccc12)C(=O)N[C@@H](CC(C)C)C(=O)N[C@H](C(=O)N[C@@H](CCC(=O)O)C(=O)N[C@@H](Cc1c[nH]cn1)C(=O)N[C@@H](CCCCN)C(=O)N[C@H](C(=O)N[C@H](C(=O)N[C@@H](CC(=O)O)C(=O)N[C@H](CCCCN)C(=O)N[C@H](CCCCN)C(=O)N[C@H](CCCCN)C(=O)N[C@H](CCCCN)C(=O)N[C@H](CCCCN)C(=O)N[C@H](CCCCNC(=O)CC[C@H](NC(=O)CCCCCCCCCCCCCCCCC(=O)O)C(=O)O)C(N)=O)[C@@H](C)O)[C@@H](C)CC)[C@@H](C)CC
B5: Compound 39 (peptide)
peptide: H-H[Aib]EGTFTSELATILDEQAARDFIAWLIAHKITD[dK][dK][dK][dK][dK][dK]([γGlu-C18 diacid])-NH2
SMILES: CC[C@H](C)[C@H](NC(=O)[C@H](CC(C)C)NC(=O)[C@H](Cc1c[nH]c2ccccc12)NC(=O)[C@H](C)NC(=O)[C@@H](NC(=O)[C@H](Cc1ccccc1)NC(=O)[C@H](CC(=O)O)NC(=O)[C@H](CCCNC(=N)N)NC(=O)[C@H](C)NC(=O)[C@H](C)NC(=O)[C@H](CCC(N)=O)NC(=O)[C@H](CCC(=O)O)NC(=O)[C@H](CC(=O)O)NC(=O)[C@H](CC(C)C)NC(=O)[C@@H](NC(=O)[C@@H](NC(=O)[C@H](C)NC(=O)[C@H](CC(C)C)NC(=O)[C@H](CCC(=O)O)NC(=O)[C@H](CO)NC(=O)[C@@H](NC(=O)[C@H](Cc1ccccc1)NC(=O)[C@@H](NC(=O)CNC(=O)[C@H](CCC(=O)O)NC(=O)C(C)(C)NC(=O)[C@@H](N)Cc1c[nH]cn1)[C@@H](C)O)[C@@H](C)O)[C@@H](C)O)[C@@H](C)CC)[C@@H](C)CC)C(=O)N[C@@H](C)C(=O)N[C@@H](Cc1c[nH]cn1)C(=O)N[C@@H](CCCCN)C(=O)N[C@H](C(=O)N[C@H](C(=O)N[C@@H](CC(=O)O)C(=O)N[C@H](CCCCN)C(=O)N[C@H](CCCCN)C(=O)N[C@H](CCCCN)C(=O)N[C@H](CCCCN)C(=O)N[C@H](CCCCN)C(=O)N[C@H](CCCCNC(=O)CC[C@H](NC(=O)CCCCCCCCCCCCCCCCC(=O)O)C(=O)O)C(N)=O)[C@@H](C)O)[C@@H](C)CC
B6: Compound 43 (peptide)
peptide: H-H[Aib]EGSFTSELATILDK([AEEA-AEEA-γGlu-C20 diacid])KAARDFIAWLIEHKITD-OH
SMILES: CC[C@H](C)[C@H](NC(=O)[C@H](Cc1ccccc1)NC(=O)[C@H](CC(=O)O)NC(=O)[C@H](CCCNC(=N)N)NC(=O)[C@H](C)NC(=O)[C@H](C)NC(=O)[C@H](CCCCN)NC(=O)[C@H](CCCCNC(=O)COCCOCCNC(=O)COCCOCCNC(=O)CC[C@H](NC(=O)CCCCCCCCCCCCCCCCCCC(=O)O)C(=O)O)NC(=O)[C@H](CC(=O)O)NC(=O)[C@H](CC(C)C)NC(=O)[C@@H](NC(=O)[C@@H](NC(=O)[C@H](C)NC(=O)[C@H](CC(C)C)NC(=O)[C@H](CCC(=O)O)NC(=O)[C@H](CO)NC(=O)[C@@H](NC(=O)[C@H](Cc1ccccc1)NC(=O)[C@H](CO)NC(=O)CNC(=O)[C@H](CCC(=O)O)NC(=O)C(C)(C)NC(=O)[C@@H](N)Cc1c[nH]cn1)[C@@H](C)O)[C@@H](C)O)[C@@H](C)CC)C(=O)N[C@@H](C)C(=O)N[C@@H](Cc1c[nH]c2ccccc12)C(=O)N[C@@H](CC(C)C)C(=O)N[C@H](C(=O)N[C@@H](CCC(=O)O)C(=O)N[C@@H](Cc1c[nH]cn1)C(=O)N[C@@H](CCCCN)C(=O)N[C@H](C(=O)N[C@H](C(=O)N[C@@H](CC(=O)O)C(=O)O)[C@@H](C)O)[C@@H](C)CC)[C@@H](C)CC

Target: human glucagon-like peptide 1 receptor (GLP-1R) (human, UniProt P43220)
Test: cell-based or functional assay

| Binder | EC50 GLP-1 (nM), cAMP AlphaScreen [nM] |
| --- | --- |
| H-H[Aib]EGSFTSEK([AEEA-AEEA-γGlu-C20 diacid])ATILDEQAARDFIAWLIEHKITD-OH [Compound 42] | 0.067 |
| B1 | 0.063 |
| B2 | 0.26 |
| B3 | 0.048 |
| B4 | 0.074 |
| B5 | 0.044 |
| B6 | 0.096 |
| H-H[Aib]EGSFTSELATILDEQAAK([AEEA-AEEA-γGlu-C20 diacid])DFIAWLIEHKITD-OH [Compound 45] | 1.4 |

Target: T1, human GLP-2 receptor (hGLP2-R)
Test: cell-based or functional assay

| Binder | EC50 GLP-2 (nM), cAMP AlphaScreen [nM] |
| --- | --- |
| H-H[Aib]EGSFTSEK([AEEA-AEEA-γGlu-C20 diacid])ATILDEQAARDFIAWLIEHKITD-OH [Compound 42] | 0.33 |
| B1 | 0.14 |
| B2 | 0.38 |
| B3 | 0.62 |
| B4 | 0.5 |
| B5 | 0.98 |
| B6 | 0.15 |
| H-H[Aib]EGSFTSELATILDEQAAK([AEEA-AEEA-γGlu-C20 diacid])DFIAWLIEHKITD-OH [Compound 45] | 0.36 |
